Data taken from patent publication US20230235029A1 (INTEGRATED BIOTHERAPEUTICS, published 2023).
Substitutions are numbered along the chain they refer to.

T1: Marburg virus Angola GP on rVSV pseudotype (Marburg virus, Angola strain, UniProt Q1PD50 19-681)
T1 sequence: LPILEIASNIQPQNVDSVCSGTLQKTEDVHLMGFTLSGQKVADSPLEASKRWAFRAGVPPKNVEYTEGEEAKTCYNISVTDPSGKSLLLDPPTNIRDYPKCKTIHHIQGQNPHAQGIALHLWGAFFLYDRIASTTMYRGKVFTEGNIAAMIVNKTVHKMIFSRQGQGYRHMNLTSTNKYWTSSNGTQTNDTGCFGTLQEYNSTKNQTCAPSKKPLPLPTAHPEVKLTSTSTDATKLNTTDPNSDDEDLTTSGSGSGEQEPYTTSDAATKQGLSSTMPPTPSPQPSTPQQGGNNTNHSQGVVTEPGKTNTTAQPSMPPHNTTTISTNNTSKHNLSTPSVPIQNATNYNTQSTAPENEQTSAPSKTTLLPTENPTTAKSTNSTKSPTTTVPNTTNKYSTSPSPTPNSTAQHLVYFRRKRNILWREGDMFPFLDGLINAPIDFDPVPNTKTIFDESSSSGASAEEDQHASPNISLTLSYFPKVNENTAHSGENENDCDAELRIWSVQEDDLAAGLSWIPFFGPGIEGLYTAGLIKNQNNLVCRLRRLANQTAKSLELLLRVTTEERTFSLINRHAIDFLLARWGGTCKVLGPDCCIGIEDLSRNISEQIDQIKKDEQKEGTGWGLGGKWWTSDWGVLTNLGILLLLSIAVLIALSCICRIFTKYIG

T2: RAVV GP on rVSV pseudotype (VSV-MARV RAVV GP) (Ravn virus, UniProt Q1PDC7 19-681)
T2 sequence: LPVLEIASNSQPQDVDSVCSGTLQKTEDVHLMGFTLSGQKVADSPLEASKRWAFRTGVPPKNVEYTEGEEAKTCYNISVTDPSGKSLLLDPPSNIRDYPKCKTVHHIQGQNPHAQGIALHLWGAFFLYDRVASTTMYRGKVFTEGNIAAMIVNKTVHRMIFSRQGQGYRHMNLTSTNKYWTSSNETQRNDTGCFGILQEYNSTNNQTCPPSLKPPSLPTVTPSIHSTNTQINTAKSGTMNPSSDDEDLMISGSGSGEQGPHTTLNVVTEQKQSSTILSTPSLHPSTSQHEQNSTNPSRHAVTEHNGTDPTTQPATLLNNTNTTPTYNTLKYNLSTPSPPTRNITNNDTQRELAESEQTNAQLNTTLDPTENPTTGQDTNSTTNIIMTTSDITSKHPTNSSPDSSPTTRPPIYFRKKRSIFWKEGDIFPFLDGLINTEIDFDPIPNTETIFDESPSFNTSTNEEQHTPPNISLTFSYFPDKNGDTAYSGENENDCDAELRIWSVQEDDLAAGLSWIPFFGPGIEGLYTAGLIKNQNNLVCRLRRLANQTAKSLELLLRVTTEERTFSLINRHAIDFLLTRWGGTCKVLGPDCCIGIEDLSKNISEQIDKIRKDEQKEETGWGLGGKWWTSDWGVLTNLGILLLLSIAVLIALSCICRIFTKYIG

T3: Marburg virus Musoke GP on rVSV pseudotype (VSV-MARV Musoke GP) (Marburg virus, Musoke strain, UniProt P35253 19-681)
T3 sequence: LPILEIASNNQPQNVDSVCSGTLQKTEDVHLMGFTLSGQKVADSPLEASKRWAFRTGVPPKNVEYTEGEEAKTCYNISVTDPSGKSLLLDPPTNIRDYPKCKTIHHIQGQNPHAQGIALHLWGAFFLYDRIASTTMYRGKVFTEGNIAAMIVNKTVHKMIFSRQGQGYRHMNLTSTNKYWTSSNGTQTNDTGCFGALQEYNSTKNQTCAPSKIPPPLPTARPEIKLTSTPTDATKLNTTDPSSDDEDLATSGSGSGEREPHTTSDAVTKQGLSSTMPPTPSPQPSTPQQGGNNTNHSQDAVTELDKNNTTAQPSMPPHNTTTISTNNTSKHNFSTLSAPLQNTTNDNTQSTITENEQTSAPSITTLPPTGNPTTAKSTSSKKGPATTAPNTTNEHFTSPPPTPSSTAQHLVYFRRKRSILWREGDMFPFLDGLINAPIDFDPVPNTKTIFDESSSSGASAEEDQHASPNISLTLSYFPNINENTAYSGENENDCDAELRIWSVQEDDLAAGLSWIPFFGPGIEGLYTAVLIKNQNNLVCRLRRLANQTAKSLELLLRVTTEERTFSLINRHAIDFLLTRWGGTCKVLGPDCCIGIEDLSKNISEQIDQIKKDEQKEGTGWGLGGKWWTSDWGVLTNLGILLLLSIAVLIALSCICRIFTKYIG

B1: R83 (antibody, V domains shown)
VH: QVQLQESGPGLVKPSETLSLTCAVSGASISDYWWNWIRQPPGKGLEWIGEIYGYSGSTYYNPSLKSRVTISKDASKKQLSLRLTSVTAADTAIYYCARDPLNQDAFDFWGLGLRVTVSS
VL: QSALTQPPSVSGSPGQSVTISCTGTSSDIGGYTYISWYQQYPGKAPKLMIYDVSKRPSGVSDRFSGSKSGNTASLTVSGLQAEDEADYYCSSYGGRKTLLFGGGTRLTVL
B2: R217 (antibody, V domains shown)
VH: QVQLQESGPGLVKPSETLSLTCAVSGASISSNWWNWIRQPPGRGLEWLGEIYGYSGSTSYNPYLKSRVTISKDASRNQISLKLNAVTAADTAVYYCARDPLNQDAFDFWGQGLRVTVSS
VL: B1 VL with T33D, I35V, Q40H, Y41H, S54N, K55E, S58A, V77I, Y89F, G94A
B3: R18 (antibody, V domains shown)
VH: QVQLQESGPGLVKASETLSLTCAVSGASISSYWWNWIRLSPGKGLEWIGEIYGYSGSTSYKSSLKSRVSISRDASKNQFSLKLTSVTAADTAVYYCARDPLNHDAFDFWGRGLRVTVSS
VL: QSALTQPPSVSGSPGQSVTISCAGTSSDIGGYTYVSWYQQHPGKAPKLMIYDVNERPSGVSDRFSGSISGNTASLTISGLQAEDEADYYCSSYAGSKTVLFGGGTRLSVL
B4: R80 (antibody, V domains shown)
VH: EVQLVESGGGLAKPGGSLRLSCAASGFTFNDYWLFWVRQAPGRGLEWISTINRPGSSTFYADSVKGRFTISRENANNALYLQMDSLRPEDTAVYYCARDQGRTVGYLDYWGQGVLVTVSS
VL: QSALTQPRSVSGSPGQSVTISCTGTSSDIGSYSYVSWYQQHPGTAPKLIIYDDSERPSGVSDRFSGSKSGNTASLTISGLQAEDEADYYCSSYAGSNTWVFGGGTRLTVL

Tests used:
[1] = biological target: Marburg virus Angola GP on rVSV pseudotype (Marburg virus, Angola strain) (UniProt Q1PD50)
[2] = biological target: Marburg virus Musoke GP on rVSV pseudotype (VSV-MARV Musoke GP) (Marburg virus, Musoke strain) (UniProt P35253)
[3] = biological target: RAVV GP on rVSV pseudotype (VSV-MARV RAVV GP) (Ravn virus) (UniProt Q1PDC7)
[4] = biological target: T1, Marburg virus Angola GP on rVSV …; test: cell-based or functional assay
[5] = biological target: T2, RAVV GP on rVSV pseudotype (VSV-MARV …); test: cell-based or functional assay
[6] = biological target: T3, Marburg virus Musoke GP on rVSV …; test: cell-based or functional assay
[7] = biological target: T3, Marburg virus Musoke GP on rVSV …; test: cell-based or functional assay; remark: listed apart in the source

Molecule	NT50 [1]	NT50 [2]	NT50 [3]	NT50 [4]	NT50 [5]	NT50 [6]	EC50 (read off the curve) [7]
MR191 (antibody)	3.81 µg/mL	2.77 µg/mL	7 µg/mL				
B1				0.03 µg/mL	0.17 µg/mL	0.05 µg/mL	
B2							~0.3 µg/mL
B3				0.04 µg/mL	0.18 µg/mL	0.09 µg/mL	
B4				0.26 µg/mL	0.3 µg/mL	0.21 µg/mL	
